From the DeepSol protein solubility set

Test: soluble on expression in E. coli; label from the status in PepcDB or PDB records

Soluble on expression in E. coli, soluble:
MIDQTALATEIKRLIKAAGPMPVWRYMELCLGHPEHGYYVTRDPLGREGDFTTSPEISQMFGELLGLWSASVWKAADEPQTLRLIEIGPGRGTMMADALRALRVLPILYQSLSVHLVEINPVLRQKQQTLLAGIRNIHWHDSFEDVPEGPAVILANEYFDVLPIHQAIKRETGWHERVIEIGASGELVFGVAADPIPGFEALLPPLARLSPPGAVFEWRPDTEILKIASRVRDQGGAALIIDYGHLRSDVGDTFQAIASHSYADPLQHPGRADLTAHVDFDALGRAAESIGARAHGPVTQGAFLKRLGIETRALSLMAKATPQVSEDIAGALQRLTGEGRGAMGSMFKVIGVSDPKIETLVALSDDTDREAERRQGTHGLEHHHHHH
SMQGPRTRARLGANEVLLVVGGFGSQQSPIDVVEKYDPKTQEWSFLPSITRKRRYVASVSLHDRIYVIGGYDGRSRLSSVECLDYTADEDGVWYSVAPMNVRRGLAGATTLGDMIYVSGGFDGSRRHTSMERYDPNIDQWSMLGDMQTAREGAGLVVASGVIYCLGGYDGLNILNSVEKYDPHTGHWTNVTPMATKRSGAGVALLNDHIYVVGGFDGTAHLSSVEAYNIRTDSWTTVTSMTTPRCYVGATVLRGRLYAIAGYDGNSLLSSIECYDPIIDSWEVVTSMGTQRCDAGVCVLRE

Soluble on expression in E. coli, not soluble:
MAAESATTETVEKSGNEESTVEVKVNGEAQNPPQESAKPAESVEDDDEPAPAKKRSGGDSEEKEDEAAEDGPEDGEEKSNLDDDQNVENPAYIPKTGRFYMHDDNRRGDVNNSQVQDDDSDDRRNLKKSRADCDWKHDRFDEKFQRPKTKKQIVTKYGFDIRHKDGTPIQDGEEIDAPAPESTEEESSDARQVSRQQKDRRVSSTTRGKVGKSGTSRRPMKQREREDTVDESKGEEEEDQGVRPAQKRQVKQQEKPRKQKPAAPPSSEENEEDEDDGAIRRGQRRAVPLRRGTTSGPPSRLRGRMSHPMGPPRRSSGAPPSSASNRRPVESSSRGPPPPPSSSSRRDYSHQGDRNDDRFENHRRGVIRGASRGGGTVTRGTGGYGRTGAIRGGVRGSGAPRYGVRRTDTSEQSEGYQRGGSGTDYSSPRPNHQSDRSYQASSTNFRGGSHPHPSANVYPSSRGGYSSNNADYASRGGGGYHGPPQHHNNHHNHQQKRFVQGPPPPMVAVGVVPGNVVPPPQMTRGSTHGGNQHNGGGGGGSGGQQRIRQPTDVVYFDPQQQQGTRQLPPRSKKVIPIVDPKDHQ
MGSDKIHHHHHHMLLQRSTWPEVEAYLQQSDGIIIPIGSTEQHGPTGLIGTDAICAEAIAQGVADRTQALVGPTINVGMALHHLGFPGSVSLRPSTLLQVIVDYLSSLAQHGFRHFYFINGHGGNIATVRAAFAEFYAVAGDRRCPEPDRLRCHLANWFMVPAVTKLARELYGDEEGSHATPSEVALTQFIYPDSIKTAPLTVEVHSSHAIYAADDFRRRYPDGRMGSNPALATPEHGQQFYESAVAELSQSYQAFLAAD
MAHHHHHHMIYKAYGSPENNSGNTHMYSMYAPPNAYVQGQGGSRTMYGYAGTGGHGSGHPFGYHANPSMGVTYEYNGGINVHHNGSAYRVGGGTNGRDRGGDVVSLRNLHGYDQQATSDYEVHDNQLKAPVVVTPATVVSTLGSARLFSKPPKPIVYGSRCVVRICDAFQEGRCAAGDRCHDIHVRPEYLAETRMEMSSWLFDRECEFRQTMEMDSEKTFSIFVADLKEVVEVPINSLVFTKGLYVDPATRAKRARGAGNHAHVHAMMQVPTSCGLYSTDPLQCKWERWCNQVHIDHRWMQVKKAEFDQWFIELQNRYFSLAPDDTFTVHDPQLKSSISLPKFSIAGFSRGLFQGSMKKLASVCLLFQRGKCTAGSCCNQIHVFPQYLSLAREFAAMEQSPDALPEEKQRLRREMELLRGPLMKQEKQETAAMESASLPNVVSSANEGTHSDAMDIKAAAEEDLASCGALFEHVQVDEDVEPVSHLVSANTSLTRRMNASAPDISLSVARHMNSDGSYSFNPYGSVTSLPDGSTSFNRFPGTRGSGQPMDGNGSVQYTPGSVQLLSTDTKGMRRLVALVSPESGNGAVELHRNGDDMGIGGNAGDGGTATVAHDRAPPFAAGHRSNGGYRAVAHPLGDEGGRYDSGTQGEQSCSLHPLDFDASWHFSPTPLLGFDASTTSTHRNGSIRDEDPAMHAHLRLTASNSSYIYPGSSTTSQQNLLSTPMHRGVTSNATTAARVRLAASAASSRTHAHRSATSLPDSSTTNPAMGGSVSSMPTARPTFVGEQLTGTR
MTVQTKTKGLAWQEKPLSDNERLKTESNFLRGTILDDLKDPLTGGFKGDNFQLIRFHGMYEQDDRDIRAERAEAKLEPLKFM
